Here are results for four molecules from patent publication US20120225828A1.

Bridge positions count the residues as written; N and C are the ends. Square brackets hold non-standard residues; d marks the D form. Nle = CCCC[C@H](N)C(=O)O; Dab = NCC[C@H](N)C(=O)O

Sequences and labels used below:
B1: Ac-Nle-cyclo(Glu-His-D-Phe-Gly-Dab)-Trp-NH2 (SEQ ID NO: 50) (peptide)
peptide: Ac-[Nle]EH[dF]G[Dab]W-NH2
modifications: lactam 2-6
SMILES: CCCC[C@H](NC(C)=O)C(=O)N[C@H]1CCC(=O)NCC[C@@H](C(=O)N[C@@H](Cc2c[nH]c3ccccc23)C(N)=O)NC(=O)CNC(=O)[C@@H](Cc2ccccc2)NC(=O)[C@H](Cc2c[nH]cn2)NC1=O
B2: Ac-Nle-cyclo(Glu-His-D-Phe-Arg-Dab)-Lys-NH2 (SEQ ID NO: 55) (peptide)
peptide: Ac-[Nle]EH[dF]R[Dab]K-NH2
modifications: lactam 2-6
SMILES: CCCC[C@H](NC(C)=O)C(=O)N[C@H]1CCC(=O)NCC[C@@H](C(=O)N[C@@H](CCCCN)C(N)=O)NC(=O)[C@H](CCCNC(=N)N)NC(=O)[C@@H](Cc2ccccc2)NC(=O)[C@H](Cc2c[nH]cn2)NC1=O
B3: Ac-Nle-cyclo(Glu-His-D-Phe-Ala-Dab)-Trp-NH2 (SEQ ID NO: 51) (peptide)
peptide: Ac-[Nle]EH[dF]A[Dab]W-NH2
modifications: lactam 2-6
SMILES: CCCC[C@H](NC(C)=O)C(=O)N[C@H]1CCC(=O)NCC[C@@H](C(=O)N[C@@H](Cc2c[nH]c3ccccc23)C(N)=O)NC(=O)[C@H](C)NC(=O)[C@@H](Cc2ccccc2)NC(=O)[C@H](Cc2c[nH]cn2)NC1=O
B4: Ac-Nle-cyclo(Glu-His-D-Phe-Ala-Dab)-Trp-NH2 (peptide)
peptide: Ac-[Nle]EH[dF]A[Dab]W-NH2
modifications: lactam 2-6
SMILES: CCCC[C@H](NC(C)=O)C(=O)N[C@H]1CCC(=O)NCC[C@@H](C(=O)N[C@@H](Cc2c[nH]c3ccccc23)C(N)=O)NC(=O)[C@H](C)NC(=O)[C@@H](Cc2ccccc2)NC(=O)[C@H](Cc2c[nH]cn2)NC1=O

Chain of recombinant human melanocortin-1 receptor hMCR-1a (human) (Q01726 whole entry): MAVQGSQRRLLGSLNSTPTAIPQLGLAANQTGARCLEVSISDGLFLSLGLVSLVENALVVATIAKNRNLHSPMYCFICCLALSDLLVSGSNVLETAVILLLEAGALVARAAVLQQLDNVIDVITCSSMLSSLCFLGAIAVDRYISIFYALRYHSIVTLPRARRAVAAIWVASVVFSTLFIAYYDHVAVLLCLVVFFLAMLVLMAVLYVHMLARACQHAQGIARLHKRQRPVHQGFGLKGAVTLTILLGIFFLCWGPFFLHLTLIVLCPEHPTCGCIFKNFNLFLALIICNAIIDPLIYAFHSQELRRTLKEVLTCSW

For the first experiment, the target named is recombinant human melanocortin-4 receptor hMCR-4 (human) (UniProt P32245). Briefly: competition with [I125]-NDP-α-MSH; HEK-293 hMCR-4 membrane homogenates.
Chain of recombinant human melanocortin-4 receptor hMCR-4 (human) (P32245 whole entry): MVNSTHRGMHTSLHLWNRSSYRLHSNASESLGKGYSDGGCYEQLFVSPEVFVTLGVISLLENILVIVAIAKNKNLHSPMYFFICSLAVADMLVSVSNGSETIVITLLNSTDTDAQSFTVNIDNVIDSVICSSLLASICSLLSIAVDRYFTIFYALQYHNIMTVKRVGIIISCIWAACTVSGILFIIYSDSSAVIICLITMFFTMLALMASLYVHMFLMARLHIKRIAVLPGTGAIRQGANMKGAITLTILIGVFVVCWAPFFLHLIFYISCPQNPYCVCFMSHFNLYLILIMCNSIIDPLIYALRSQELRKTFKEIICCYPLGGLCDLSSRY
On to B1, for which the Ki – broadly, a measure of affinity in units of concentration, obtained from inhibition or displacement – worked out at 10000 nM.
As to B2, the Ki amounted to 7380 nM.
The same measure, in the same setting: next, B3: 10000 nM.

A further experiment has as its target recombinant human melanocortin-1 receptor hMCR-1a (human) (UniProt Q01726). Description: competition with [I125]-NDP-α-MSH; HEK-293 hMCR-1a membrane homogenates.
In the case of B1, the Ki came out at 9 nM.
On the same count and under the same terms, the same measure for B4: 0.08 nM; for B2: 2 nM; for B3: 0.08 nM.
